In PMC8552724:

Tested on: T1, AbrB (Bacillus thuringiensis (HD73?)), ORF:5acdf31f
T1 sequence: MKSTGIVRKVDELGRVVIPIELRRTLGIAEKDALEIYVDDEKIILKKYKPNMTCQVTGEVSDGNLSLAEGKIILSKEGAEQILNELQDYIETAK
Assay: EMSA

How did the binding turn out when “CATCCGTTAAAGGAAGCATGAATTAGTAATGAATTTGCAATTTCGATAAAAGTTTGTAATATTTCATTTTATGGACATACTTCATCTAGATCACTTTGTAATAGAATATTTCCTTTTATATACAATTAAACCACATTTATCCTTCGTGAAATGTTTATATATTAAATAATATAAAAAAATATAGGGTGTTATAATTAATTCGAAAACGTTTACAAAAAGAATGATGGAGGGATAATT (double strand) [Psip1Ab1-S (-201 to +36)]” was run?
The binding was “binds”.
